Data taken from patent US20180335429.

Biological target: T1, MMP substrate, 5-FAM-GGPLGVRGKK(CPQ2)-PEG2-C, presented on the iron-oxide nanoparticle (ABN) surface (not fully specified)
T1 chain: GGPLGVRGKKC

B1: mouse MMP9 (protein)
chain: APYQRQPTFVVFPKDLKTSNLTDTQLAEAYLYRYGYTRAAQMMGEKQSLRPALLMLQKQLSLPQTGELDSQTLKAIRTPRCGVPDVGRFQTFKGLKWDHHNITYWIQNYSEDLPRDMIDDAFARAFAVWGEVAPLTFTRVYGPEADIVIQFGVAEHGDGYPFDGKDGLLAHAFPPGAGVQGDAHFDDDELWSLGKGVVIPTYYGNSNGAPCHFPFTFEGRSYSACTTDGRNDGTPWCSTTADYDKDGKFGFCPSERLYTEHGNGEGKPCVFPFIFEGRSYSACTTKGRSDGYRWCATTANYDQDKLYGFCPTRVDATVVGGNSAGELCVFPFVFLGKQYSSCTSDGRRDGRLWCATTSNFDTDKKWGFCPDQGYSLFLVAAHEFGHALGLDHSSVPEALMYPLYSYLEGFPLNKDDIDGIQYLYGRGSKPDPRPPATTTTEPQPTAPPTMCPTIPPTAYPTVGPTVGPTGAPSPGPTSSPSPGPTGAPSPGPTAPPTAGSSEASTESLSPADNPCNVDVFDAIAEIQGALHFFKDGWYWKFLNHRGSPLQGPFLTARTWPALPATLDSAFEDPQTKRVFFFSGRQMWVYTGKTVLGPRSLDKLGLGPEVTHVSGLLPRRLGKALLFSKGRVWRFDLKSQKVDPQSVIRVDKEFSGVPWNSHDIFQYQDKAYFCHGKFFWRVSFQNEVNKVDHEVNQVDDVGYVTYDLLQCP
cleavage of the substrate: it was confirmed that mouse MMP9 cleaves the ABN MMP9 substrate
